This data set can be described thus: label from the status in PepcDB records.
For the sequence “MATIIFAGRSNVGKSTLIYRLTGKKVRRGKRPGVTRKIIEIEWKNHKIIDMPGFGFMMGLPKEVQERIKDEIVHFIEDNAKNIDVAVLVVDGKAAPEIIKRWEKRGEIPIDVEFYQFLRELDIPTIVAVNKLDKIKNVQEVINFLAEKFEVPLSEIDKVFIPISAKFGDNIERLKNRIFEVIRERQGRRV”, the protein production entry is given as “not failed”. As to “MATITVVKARQIFDSRGNPTVEVDIHTSNGIKVTAAVPSGASTGIYEALELRDGGSDYLGKGVSKAVGNVNNIIGPALIGKDPTQQTAIDNFMVHELDGTQNEWGWCKQKLGANAILAVSLAVCKAGAVVSGIPLYKHIANLAGNPKIVLPVPAFNVINGGSHAGNKLAMQEFMILPVGAASFKEAMKMGVEVYHHLKSVIKKKYGQDATNVGDEGGFAPNIQENKEGLELLKTAIEKAGYTGKVVIGMDVAASEFYSEDKTYDLNFKEENNNGSQKISGDALKDLYKSFVAEYPIVSIEDPFDQDDWEHYAKMTTECGTEVQIVGDDLLVTNPKRVAKAIAEKSCNALLLKVNQIGSVTESIEAVKMSKKAGWGVMTSHRSGETEDTFIADLAVGLSTGQIKTGAPCRSERLAKYNQLLRIEEELGSEAIYAGVNFRKPVEPY”, the protein production result is “failed”.

As for “MATKARVMYDFAAEPGNNELTVTEGEIITVTNPNVGGGWLEGKNNKGEQGLVPTDYVEILPNDGKDPFSC”, the protein production result was “not failed”. The value for “MATKIDKEACRAAYNLVRDDGSAVIWVTFRYDGATIVPGDQGADYQHFIQQCTDDVRLFAFVRFTTGDAMSKRSKFALITWIGEDVSGLQRAKTGTDKTLVKEVVQNFAKEFVISDRKELEEDFIRSELKKAGGANYDAQSE” was “not failed”; that for “MATLEITDIALVQPSHQPLSNDQTLSLSHLDNDNNLHVSFRYLRVYSSSSSTVAGESPSAVVSASLATALVHYYPLAGSLRRSASDNRFELLCSAGQSVPLVNATVNCTLESVGYLDGPDPGFVERLVPDPTREEGMVNPCILQVTMFQCGGWVLGASIHHAICDGLGASLFFNAMAELARGATKISIEPVWDRERLLGPREKPWVGAPVRDFLSLDKDFDPYGQAIGDVKRDCFFVTDDSLDQLKAQLLEKSGLNFTTFEALGAYIWRAKVRAAKTEEKENVKFVYSINIRRLMNPPLPKGYWGNGCVPMYAQIKAGELIEQPIWKTAELIKQSKSNTSDEYVRSFIDFQELHHKDGINAGTGVTGFTDWRYLGHSTIDFGWGGPVTVLPLSNKLLGSMEPCFFLPYSTDAAAGSKKDSGFKVLVNLRESAMPEFKEAMDKFHKGEFALS” was “failed”. Under “MATLTRLFIHPVKSMRGIGLTHALADVSGLAFDRIFMITEPDGTFITARQFPQMVRFTPSPVHDGLHLTAPDGSSAYVRFADFATQDAPTEVWGTHFTARIAPDAINKWLSGFFSREVQLRWVGPQMTRRVKRHNTVPLSFADGYPYLLANEASLRDLQQRCPASVKMEQFRPNLVVSGASAWEEDSWKVIRIGDVVFDVVKPCSRCIFTTVSPEKGQKHPAGEPLKTLQSFRTAQDNGDVDFGQNLIARNSGVIRVGDEVEILATAPAKIYGAAAADDTANITQQPDANVDIDWQGQAFRGNNQQVLLEQLENQGIRIPYSCRAGICGSCRVQLLEGEVTPLKKSAMGDDGTILCCSCVPKTALKLTRLEHHHHHH” stands “failed”; under “MATLYDAPVDELIDELAADLETRLDEPDWANYAKTGAGRELPPEQSDFWATRAASLLRKVAIDGPIGVKRLSEAYGSTTSGSNRYVVAPSTTTAGSRNIVRTILQQLEAEGLVEQQHDHGRVVTGDGRSLLDETAGDVIESLDRPELERYA”, “failed”; under “MATPPFDPSLSPLKTVAVIGLGTMGTGIAEVLARAGREVVGIDISEAAAGHAVTALEASTARAVQRERLTEQERGDILARFRTFTDLQAAADADLVIEVTPESYEIKQQVLRALDGIVRADTILATGTNALSVTRLAADSAHPERVLGLHFFNPAPAMKLVEVVSSVLTAPTAVAAVTNLALDLGKEPVAVGDRPGFVADGLLFGYLNQAAAMYEAKYASREDIDAAMKLGCGLPMGPLALLDLIGVDTARTVLEAMYAESRDRLHAPAPILKQLSEAGLTGRKSGRGFYSYDEPGSATVVRDALTPLSGGPGEQGRTVRSVGVAGSGTMASGIAEVFAKAGYEVVLAARSEEKAQTAKARIGKSLSRSVDKGRLTAEAAAETLDRITPAGSYDAFADVDLALEAVAEDLEIKQQLFATFDKVCKPGAILATTTSSLPVVACARATSRPQDVIGMHFFNPAPAMKLVEVVRTVLTGDDVHATVREVCAKIRKHPVDCGDRAGFIVNALLFPYLNNAIKMVQEHYATLDDIDAAMKLGGGYPMGPFELLDVVGLDVSLAIEKVLHREFRDPGLAPAPLLEHLVAAGCLGRKTGRGFREYAKR”, “failed”.
